Measured values published in PMC6123711, “Conformational signatures in β-arrestin2 reveal natural biased agonism at a G-protein-coupled receptor” (Communications Biology, 2018).

B1: Spexin (peptide, UniProt Q9BT56 27-116, looked up)
Spexin: APQRLLERRNWTPQAMLYLKGAQGRRFISDQSRRKDLSDRPLPERRSPNPQLLTIPEAATILLASLQKSPEDEEKNFDQTRFLEDSLLNW
modifications: Spexin
notes: endogenous peptide ligand of Galr2 and Galr3; synthesized by AnyGen

Tests used:
[1] = test system: Galr2–β-arrestin2–clathrin complex; test: β-arrestin2–clathrin interactions (NanoBit); type: cell-based, human; details: for Log(τ/KA), Clathrin:β-arrestin2 / formation of Galr2–β-arrestin2–clathrin complex: data at 5 min after agonist; for Log(τ/KA), Clathrin:β-arrestin2: operational model (Eq. 2); for Log(τ/KA), Clathrin:β-arrestin2 / ΔLog(τ/KA), Clathrin:β-arrestin2: mean ± s.e.m. of three experiments in triplicate; for formation of Galr2–β-arrestin2–clathrin complex: dose–response, normalized to Galanin; for ΔLog(τ/KA), Clathrin:β-arrestin2: normalized to Galanin (reference agonist), in parenthesis
Excerpt: The interaction between β-arrestin2 and clathrin induced by the activation of Galr2 was examined using the NanoBit technology. We measured real-time association of the protein complex Galr2–β-arrestin2–clathrin. We constructed β-arrestin2 and clathrin subunit A tagged with LgBit or SmBit at the C or N termini and screened eight different plasmid combinations, out of which only one combination (β-arrestin2–LgBit:SmBit–clathrin) responded to ligand stimulation (Fig. 3, Supplementary Fig. 3). Before ligand stimulation, Galr2, β-arrestin2, and clathrin were not in close proximity and so the basal luminescence was very low. […] A time course experiment was initially performed to determine the time at which the maximal increase in luminescence occurred following agonist stimulation. All ligands except for Fmoc-dA4-dQ14 induced different fold increase in luminescence immediately after ligand treatment (Fig. 3b). […] Galanin- and Spexin-induced increases in luminescence were attenuated by pretreatment of cmpd101, a G-protein-coupled receptor kinase 2/3 (GRK2/3) inhibitor, indicating contribution of GRK2/3 in the formation of Galr2–β-arrestin2–clathrin complex (Fig. 3).
The arrows indicate the time when the cells were treated with different ligands. […] The results are expressed as mean ± s.e.m. of three experiments performed in triplicate. Each triplicate was averaged before calculating the s.e.m.
Quantification of bias between each pathway was performed using Galanin as a reference ligand. All incubations for the different signaling assays were performed in serum-free medium to prevent peptide degradation.
One day before transfection, cells were seeded in 96-well plates at a density of 2.5 × 10^4 cells per well. A mixture containing 35 ng β-arrestin construct containing the LgBit or SmBit, 35 ng clathrin subunit A containing one of the two domains of Nluc and 30 ng untagged receptor, and 0.2 μl Lipofectamine 2000 (Invitrogen) was prepared and added to each well. We followed the assay manufacturer’s instructions and tested eight β-arrestin-clathrin plasmid combinations. In only one plasmid combination we were able to observe luminescent signal and it was chosen for further experiments. At 24 h post transfection, medium was aspirated and replaced with 100 μl OPTIMEM at room temperature. After a 10-min incubation, 25 μl substrate (furimazine) was added and the luminescence was monitored once every minute for 10 min. Then, 10 μl ligand was added to each well and the luminescence values were recorded immediately and once every minute for 1 h (Synergy 2 Multi-Mode Microplate Reader BioTek).

human Galr2 = test: Recruitment of β-arrestin2-FlasH1-3 to Galr2 (NanoBit); type: cell-based; details: NanoBit luminescence
Excerpt: To investigate the effects of GPCR activation on the dynamics of β-arrestin2 conformation, we developed a series of FlasH BRET conformational biosensors[31],[32] by inserting the six-amino-acid motif, CCPGCC, immediately after the amino acid residue 140 (FlasH1), 263 (FlasH2), and 410 (FlasH3), respectively, into the human β-arrestin2 (Fig. 7a, b). Due to its characteristics (e.g., small size, stable, and bright and sustained luminescence)[33], we covalently linked the Nluc to the N terminus of β-arrestin2 during probe design. Each probe (Nluc–β-arrestin2–FlasH1, 2, and 3) was designed to measure BRET between Nluc and a fluorescein arsenical acceptor located at one of three positions along β-arrestin2. […] All three ligands were able to recruit these β-arrestin2–FlasH constructs to induce luminescence signals, although some signals were lower than that of wild-type β-arrestin2 (Fig. 7c). […]
The arrows indicate the time for treatment with the corresponding agonist. d Nluc–β-arrestin2–FlasH1-3 “conformational hallmarks” of β-arrestin2 by binding to Galr2. The bar graphs depict mean ± s.e.m. values of independent biological replicates (n = 3). *P < 0.05, **P < 0.005, statistically significant differences versus Galanin-stimulated control as determined by a one-way analysis of variance (ANOVA). […]

[2] = test system: human β-arrestin2 (Galr2-stimulated); test: Intramolecular FlasH BRET at β-arrestin2 conformational biosensors; type: cell-based; details: HEK293 cells, 10 μM agonist
Excerpt: To investigate the effects of GPCR activation on the dynamics of β-arrestin2 conformation, we developed a series of FlasH BRET conformational biosensors[31],[32] by inserting the six-amino-acid motif, CCPGCC, immediately after the amino acid residue 140 (FlasH1), 263 (FlasH2), and 410 (FlasH3), respectively, into the human β-arrestin2 (Fig. 7a, b). Due to its characteristics (e.g., small size, stable, and bright and sustained luminescence)[33], we covalently linked the Nluc to the N terminus of β-arrestin2 during probe design. Each probe (Nluc–β-arrestin2–FlasH1, 2, and 3) was designed to measure BRET between Nluc and a fluorescein arsenical acceptor located at one of three positions along β-arrestin2. We hypothesized that observing changes in BRET efficiency from multiple sites would produce a β-arrestin2 conformational hallmark characteristic for each ligand[31]. We used a structural complementation assay based on NanoBit technology to test whether the insertion of the FlasH motif would have an effect on β-arrestin2 recruitment. All three ligands were able to recruit these β-arrestin2–FlasH constructs to induce luminescence signals, although some signals were lower than that of wild-type β-arrestin2 (Fig. 7c). […]
Intramolecular BRET at β-arrestin2 conformational biosensors was measured based on the steps and procedures previously described. […]

| Molecule | Log(τ/KA), Clathrin:β-arrestin2 [1] | formation of Galr2–β-arrestin2–clathrin complex [1] | ΔLog(τ/KA), Clathrin:β-arrestin2 [1] | recruitment of β-arrestin2–FlasH1-3 constructs (human Galr2) | ΔNet BRET in Nluc–β-arrestin2–FlasH1-3 versus Galanin ([2]; 2 min, n = 3, each probe) | ΔNet BRET similarity between Spexin and Fmoc-dA4-dQ14 ([2]; FlasH1-3 biosensors) |
| --- | --- | --- | --- | --- | --- | --- |
| Galanin [reference compound] | 8.00 ± 0.18 | highest response | 0.00 ± 0.20 | maximal response | – | – |
| B1 | 6.22 ± 0.10 | lower potency and efficacy than Galanin | −1.80 ± 0.10 | – | significantly different from those observed in Galanin | very similar between Spexin and Fmoc-dA4-dQ14 except for the FlasH3 conformational biosensor |
